This data set deals with CC(C)(O/N=C(\C(=O)N[C@@H]1C(=O)N2C(C(=O)[O-])=C(C[N+]3(CCNC(=O)c4ccc(O)c(O)c4Cl)CCCC3)CS[C@H]12)c1csc(N)n1)C(=O)O. The experiment in a line: purified protein, by the assay type. The following applies: other: FDC hydrolysis by VIM-2, 30 °C, pH 7.5.

Usually kcat stands for the number of substrate molecules converted per active site and unit of time at saturation.

VIM-2 (Escherichia coli): the kcat is 1.1 ± 0.14 s⁻¹.

(Values after publication PMC12152739.)
